From publication PMC10967930

Key:
[1] = biological target: human PF4 isolated from human platelets (human); experiment: other fluorescence titration
[2] = biological target: full-length SARS-CoV-2 spike protein of original COVID-19 (SARS-CoV-2) (UniProt P0DTC2); experiment: ELISA

Row | Substance | Kd [1] [nM] | OD at 450 nm [2]
1 | full-length SARS-CoV-2 spike protein of original COVID-19 (from UniProt P0DTC2) (natural protein) | 586 | 
2 | human PF4 isolated from human platelets (natural protein) |  | > 0.5
